{
  "source": "paper PMC8556674",
  "key": {"[1]": {"molecular_target": "mchr-Miro2 (human) (UniProt Q8IXI1)", "sequence (Q8IXI1 whole entry)": "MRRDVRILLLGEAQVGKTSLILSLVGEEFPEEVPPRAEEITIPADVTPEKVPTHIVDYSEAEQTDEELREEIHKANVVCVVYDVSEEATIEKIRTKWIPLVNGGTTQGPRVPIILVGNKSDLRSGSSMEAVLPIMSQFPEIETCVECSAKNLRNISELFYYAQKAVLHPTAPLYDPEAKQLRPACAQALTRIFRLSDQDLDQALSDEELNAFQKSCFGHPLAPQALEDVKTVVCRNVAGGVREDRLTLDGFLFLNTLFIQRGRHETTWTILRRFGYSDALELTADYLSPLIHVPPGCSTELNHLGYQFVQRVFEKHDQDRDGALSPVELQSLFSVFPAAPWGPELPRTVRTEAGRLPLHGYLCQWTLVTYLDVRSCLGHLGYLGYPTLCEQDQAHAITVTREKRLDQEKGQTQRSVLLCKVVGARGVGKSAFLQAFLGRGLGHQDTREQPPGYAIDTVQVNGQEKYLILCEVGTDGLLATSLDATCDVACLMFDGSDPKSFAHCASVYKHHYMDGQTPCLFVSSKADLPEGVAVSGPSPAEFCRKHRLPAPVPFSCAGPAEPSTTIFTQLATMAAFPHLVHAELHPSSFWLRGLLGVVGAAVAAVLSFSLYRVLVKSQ"}, "[2]": {"molecular_target": "mchr-Miro2 A13V (human) (UniProt Q8IXI1)", "sequence (Q8IXI1 whole entry A13V)": "as the sequence (Q8IXI1 whole entry) above, with A13V counted along it"}, "[3]": {"molecular_target": "mchr-Miro2 (human) (UniProt Q8IXI1)", "remark": "listed apart in the source"}},
  "data": [
    {"substance": "MYO19^898–970-GFP (from UniProt Q96H55 898-970) (domain or fragment)", "values": [
      {"measurement": "PARF immobile fraction, HeLa cells, 25 uM digitonin", "setting": "[1]", "result": 0.33},
      {"measurement": "FRAP immobile fraction, live HeLa cells", "setting": "[2]", "result": 0.14},
      {"measurement": "FRAP immobile fraction, live HeLa cells", "setting": "[3]", "result": 0.03},
      {"measurement": "FRAP t1/2 of mitochondrial GFP fluorescence, live HeLa cells", "setting": "[3]", "result": 9.2, "unit": "s"}
    ]},
    {"substance": "MYO19^898–970-GFP mut. (K923, R927 and K928 mutated to alanine) (from UniProt Q96H55 898-970) (domain or fragment)", "values": [
      {"measurement": "FRAP immobile fraction, live HeLa cells", "setting": "[3]", "result": 0.04},
      {"measurement": "FRAP t1/2 of mitochondrial GFP fluorescence, live HeLa cells", "setting": "[3]", "result": 1.5, "unit": "s"}
    ]}
  ]
}
